Data on one molecule can be found in publication PMC12134289 (Nature Communications, 2025).

This experiment deals with T1, extended S2 fusion intermediate of the SARS-CoV-2 spike (after S1 dissociation) (SARS-CoV-2, Victoria (probably …, UniProt P0DTC2, strain)).
T1 construct: A conformational and proteolytic state of m1, seen between the virion and ACE2VLP membranes; also called extended intermediate; extended S2 intermediate
As to the kind of experiment: cryo-electron tomography; virions pre-incubated with WS6 (200 ug/ml, 1 h, 37 °C), then ACE2VLPs and trypsin for 30 min at 37 °C, PFA-fixed. As to conditions: one partner purified.

B1: WS6 S2 stem-helix broadly neutralizing antibody (antibody, V domains shown)
VH: EVQFQQSGTVLARPGASVKMSCKASGYTFTNYWIHWVKQRPGQGLEYIGGTYPGNGDTTYNQKFKGKAKVTAVTPTSTAYMDLSSLTNEDSAVYYCTRTGSYFDYWGQGTTLTVSS
VL: QIVLTQSPAIMSASPGEKVTISCSATSSVSYIYWYQQRPGSSPKPWIYRTSNLASGVPVRFSGSGSGTSYSLTISNMEAEDAATYYCQQYQSYPPTFGAGTKLELK
notes: mouse-derived antibody; Whole antibody with two arms was used (200 ug/ml in PBS); also called WS6 S2 antibody; spike stalk antibody WS6; copies: 2 + 2
On to B1, for which the binding result is given as “binds”.
